Results reported in the supplement of paper PMC10567573.

B1: TEKT4 (parent)
chain: SEVEELNMSLTALREKLLEAEQSL
B2: CAMK2A (parent)
chain: CIQQILEAVLHCHQMGVVHRDLKP

Variants of: B1
Assay: protein stability index of a GFP-peptide fusion (GPS, HEK-293T) (PSI 1-6); higher = more stable
Settings: c terminus: a fixed tail appended
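Also: lentivirally expressed fusions sorted by FACS into six bins by GFP to DsRed ratio, PSI derived from sequencing read proportions per bin multiplied by bin number.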

Protein stability index of substitutions, site by site:
S23: P 4.45, V 2.87, N 3.21, Y 2.33, M 2.74, A 2.47, K 3.17, F 2.48, T 2.77, I 2.74, L 2.37, E 3.93, C 2.39, W 2.75, H 2.31, R 2.9, Q 2.72, D 3.36, G 3.66
E21: V 2.36, K 3.42, F 2.62, G 3.51, A 2.8, H 3.06, L 2.81, C 2.23, Q 3.44, I 2.06, S 2.94, N 3.34, T 2.97, D 4.83, R 3.26, W 2.36, P 2.45, M 3.16, Y 2.77
A20: F 3.79, E 5.04, Y 3.88, Q 4.32, D 4.72, M 3.73, P 4.76, N 4.52, K 4.9, R 4.28, G 4.88, S 4.18, I 3.55, H 3.93, L 3.98, T 4.26, C 4, W 2.95, V 4.41
E19: K 3.97, Q 2.36, M 2.92, R 2.78, F 2.24, L 2.39, H 3.26, I 2.31, N 3.71, D 3.49, P 4.07, T 3.6, G 3.95, W 2.26, V 3.66, Y 2.62, S 3.41
L24: G 5.01, Y 3.82, H 4.41, K 5.14, T 4.97, N 4.97, F 4.51, A 4.18, I 3.1, D 5.19, S 4.63, V 2.25, M 4.18, C 3.82, Q 4.78, R 4.23, E 4.69, W 3.74, P 4.99
Q22: A 2.81, W 1.89, G 3.6, T 3.64, S 3.44, C 2.37, V 2.23, D 2.48, R 2.64, K 3.36, P 3.99, I 1.72, M 1.91, L 1.96, E 3.37, N 2.54, Y 1.94, H 2.5, F 1.75

Variants of: B2
Assay: as above
Settings: c terminus: a fixed tail appended

Protein stability index, by site and new letter:
I2: S 1.56, P 2.07, A 2.45, H 1.68, R 2.21, W 1.35, Q 1.72, D 2.09, C 3.15, T 1.79, E 1.78, K 1.22, G 1.99, V 2.74, N 1.32
Q3: V 3.85, K 2.77, P 3.19, D 3.17, F 2.24, C 3.04, Y 3.67, I 2.81, T 3.42, G 3.91, H 3.11, A 3.85
C1: F 3.55, W 1.78, K 2.82, I 3.46, M 4.15, D 2.12, Y 2.37, H 1.56, L 3.19, V 2.22, Q 1.13, T 2.82, R 2.22
I5: D 2.65, A 4.67, C 3.12
Q4: G 5.02, K 1.93, N 2.68, H 2.13, M 1.92, R 2.94, T 2.74, D 2.04, L 2.55, P 1.69, Y 2.07, A 1.96
